Assay results taken from patent publication US20030148447A1.

Experiments:
[1] = target: MPL-zalpha11 chimera (MPL extracellular and transmembrane domains fused to the zalpha11 intracellular signaling domain) (human); assay: cell-based or functional assay
[2] = target: factor present in the activated CD3+ selected human T-cell conditioned media; assay: cell-based or functional assay

Question: With thrombopoietin (TPO) (ligand) as the substance, how does the proliferation of BaF3/MPL-zalpha11 cells (Alamar Blue), fold over background (fold over background) [1] read?
Answer: 10

Question: Which results are given for “zalpha11-Fc4 soluble receptor (zalpha11 extracellular domain fused C-terminally to human IgG Fc, Fc4) (from UniProt Q9HBE5 20-237) (Fc fusion)”?
Answer: inhibition of conditioned-medium-driven BaF3/Zalpha11 cell growth; soluble receptor concentration giving complete inhibition [2]: 10 µg/mL; titration of soluble receptor; lowest concentration completely inhibiting BaF3/Zalpha11 growth [2]: 1.5 µg/mL
